Test results as given in article PMC10661074 (Protein Science : A Publication of the Protein Society, 2023).
Substitutions are numbered along the chain they refer to.

B1: HFt‐W4 (natural protein, human, UniProt P02794 1-183, looked up)
chain: MTTASTSQVRQNYHQDSEAAINRQINLELYASYVYLSMSYYFDRDDVALKNFAKYFLWQSWEEREHAEKLMKLQNQRGGRIFLQDIKKPDCDDWESGLNAMECALHLEKNVNQSLLELHKLATDKNDPWLCDFIETHYLNEQVKAIKELGDWVTNLRKMGAPESGLAEYLFDKHTLGDSDNES
notes: human ferritin heavy chain (H ferritin) with four substitutions to tryptophan; synthetic gene in pET22b; 24-mer cage; In the BLI experiment the cage was loaded with ellipticine (a small molecule, about 98 molecules per cage) by a pH jump; the protein is the same; also called HFt‐W4 mutant; hydrophobicity‐enhanced ferritin nanoparticle; source: E. coli, purified (ammonium sulfate fractionation, …)
B2: HFt‐W6 (natural protein, human, UniProt P02794 1-183, looked up)
chain: B1 chain with Y138W, F171W
notes: human ferritin heavy chain (H ferritin) with six substitutions to tryptophan; synthetic gene in pET22b; 24-mer cage as purified; also called HFt‐W6 mutant; source: E. coli, purified (ammonium sulfate fractionation, heat treatment at 70°C, DNase, Superdex 200 SEC); copies: 24

Tests used:
[1] = molecular target: T1, His‐tagged TfR1 (UniProt P02786 101-760); assay: BLI; Octet N2; His‐tagged TfR1 (50 μg/mL) immobilised on Ni‐NTA biosensors; HFt 25–500 nM or HFt‐W4 loaded with ellipticine 50–400 nM in solution; single exponential fits; settings: both partners purified
T1 construct: transferrin receptor 1 (TfR1); No catalogue number is printed; also called transferrin receptor TfR1; TfR1 receptor; source: bought: Merck
T1 sequence (P02786 101-760): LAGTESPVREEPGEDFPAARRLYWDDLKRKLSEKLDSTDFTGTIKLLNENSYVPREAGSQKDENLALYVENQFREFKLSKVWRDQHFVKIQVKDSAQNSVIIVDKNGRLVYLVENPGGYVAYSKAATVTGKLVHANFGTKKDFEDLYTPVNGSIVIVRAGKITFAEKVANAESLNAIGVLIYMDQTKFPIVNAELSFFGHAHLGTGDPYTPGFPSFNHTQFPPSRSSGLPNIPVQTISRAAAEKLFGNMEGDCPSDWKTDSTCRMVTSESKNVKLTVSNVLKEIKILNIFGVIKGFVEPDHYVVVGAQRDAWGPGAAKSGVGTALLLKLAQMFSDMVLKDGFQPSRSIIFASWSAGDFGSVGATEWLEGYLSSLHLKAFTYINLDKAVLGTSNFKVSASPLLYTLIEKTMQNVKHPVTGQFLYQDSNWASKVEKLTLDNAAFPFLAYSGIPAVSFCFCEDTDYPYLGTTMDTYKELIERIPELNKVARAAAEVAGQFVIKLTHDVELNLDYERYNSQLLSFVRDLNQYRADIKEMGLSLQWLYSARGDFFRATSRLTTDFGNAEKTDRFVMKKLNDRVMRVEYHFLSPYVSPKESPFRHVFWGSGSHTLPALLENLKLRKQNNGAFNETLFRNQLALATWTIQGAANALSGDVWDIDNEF

[2] = molecular target: the molecule itself; assay: SEC; analytical HP‐SEC, Agilent AdvanceBio SEC 300 Å column, phosphate‐buffered saline pH 7.4, 1.0 mL/min, UV 220 and 280 nm; purified ferritins before the pH jump

| Binder | Kd [1] | stoichiometry N [2] |
| --- | --- | --- |
| B1 | 25 nM | 24 |
| B2 |  | 24 |
